Measurements taken from patent US20070134249A1 (GENITOPE, published 2007).

Legend:
[1] = molecular target: T1, PIN149 fully human Id protein (HV3-23 / KV4-1) (human); assay: SPR (BIACORE 2000); mAb captured on anti-mouse surface, fully human Id protein as analyte, 25 C
T1 construct: Recombinant patient-derived idiotype immunoglobulin used as antigen; also called PIN149 Id protein; Immunogen (for 3C9, 6C9, 10H7, 15E1); not shown: human immunoglobulin heavy chain constant region, isotype G3 (HCG3); human immunoglobulin kappa light chain constant region (KC)
T1 sequence (VH, as listed by the source, chain 1 of 2): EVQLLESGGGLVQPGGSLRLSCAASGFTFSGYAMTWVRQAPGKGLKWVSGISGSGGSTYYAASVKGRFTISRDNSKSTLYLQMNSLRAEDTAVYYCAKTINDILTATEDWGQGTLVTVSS
T1 sequence (VL, as listed by the source, chain 2 of 2): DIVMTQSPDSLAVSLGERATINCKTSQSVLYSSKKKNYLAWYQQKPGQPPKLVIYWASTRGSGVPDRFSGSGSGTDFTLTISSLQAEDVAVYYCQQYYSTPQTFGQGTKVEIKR
Procedure: (§1) Binding constants were also determined for three of the sequenced clones (3C9, 10H7, and 20H5), as well as for two additional clones (6C9 and 15E1). The association and disassociation rates were measured by surface plasmon resonance using a BIACORE 2000 machine.
(§2) In addition, based on ELISA results, PIN185 was used as a positive control Id protein for 10H7 and 15E1 and a negative control Id protein for 3C9 and 6C9 and PIN149 was used as a non-binding Id protein for 20H5. Each mAb was captured onto an anti-mouse surface and tested for binding to the fully human Id protein. Following the mAb capture phase of the assay for the (@2 ug/ml), the fully human Id proteins were all diluted to a starting concentration of 250 nM and tested in a three fold dilution series. Each concentration was tested in duplicate. The running buffer contained PBS plus 0.005% tween-20 and 0.1 mg/ml BSA as a carrier. Binding data were collected at 25° C. […] The other data sets all fit well to a single site interaction model.

[2] = molecular target: T2, 778; assay: ELISA
T2 construct: H3-23 K3-11; also called PIN778
Excerpt: (§3) Before specificity screening, all of the clonal immunogen-positive hybridoma supernatants were re-screened on the immunogen, a non-family member Id protein, and KLH, if animals were immunized with Id protein that has been conjugated KLH. As described above, this screen identifies HC-specific clones but not mAbs against the light chain constant region. Clones identified positive to the immunogen and KLH were […]. Those found positive to the immunogen but not to the non-family member Id protein or KLH were tittered on the immunogen. In addition to normalizing for different binding affinities and concentrations, each hybridoma supernatant was titered on the fully human form of the Id protein used as the immunogen(s) for the V regions. The titer or dilution resulting in an ELISA absorbance of 2.5 to 3 OD after 30 min. incubation time was then used. Hybridoma specificity was determined by screening against available Id proteins expressing the same HV and KV or LV as well as different HV, KV and LV. The final ELISA results are expressed as follows: 0 (<0.5 OD), 1 (0.5-1.0 OD), or 4 (1-4 OD). Positive hybridoma supernatants are categorized according to specificity: anti-Id, anti-constant region (HC, KC or LC), or V region (HV, KV, LV family or family member).
(§4) In general, the fully human Id protein or proteins containing the immunogen V regions were coated onto 96-well ELISA plates at 2.5-5 ug/mL in carbonate buffer pH 9.6 and incubated at 4° C. for up to 14 days. On the day of the ELISA, plates were brought to RT and blocked with Tris-Tween-20, pH 7.6 for 15-60 min. at RT. Following a NaCl and Triton X-100 wash, diluted hybridoma cell culture supernatants were incubated overnight at 4° C. Hybridoma supernatant dilutions ranged from 1:2 to 1:25 and were prepared in PBS with 5% BSA. Plates were washed and incubated with HRP-conjugated goat anti-mouse IgG-specific detecting antibody. A chromogenic substrate (TMB) was used to measure the amount of mouse antibody bound to each well. The reaction was stopped at or before 30 minutes with IN H2SO4 and plates were read immediately. Absorbency readings at 450 nm ranging between 0-4 OD and using Molecular Devices plate reader and SOFTMAX PRO software.

[3] = molecular target: T3, 210; assay: ELISA
T3 construct: H3-23 K3-11; also called PIN210
Excerpt: as §3, §4

[4] = molecular target: T4, 213; assay: ELISA
T4 construct: H3-23 L1-51; also called PIN213
Excerpt: as §3, §4

[5] = molecular target: T5, 834; assay: ELISA
T5 construct: H3-23 K1-5; also called PIN834
Excerpt: as §3, §4

[6] = molecular target: T6, 571; assay: ELISA
T6 construct: H3-23 K3-11; also called PIN571
Excerpt: as §3, §4

[7] = molecular target: T7, 547; assay: ELISA
T7 construct: also called PIN547
Excerpt: as §3, §4

[8] = molecular target: T8, 850; assay: ELISA
T8 construct: H3-23 K2-30; also called PIN850
Excerpt: as §3, §4

[9] = molecular target: T9, 576; assay: ELISA
T9 construct: H3-23 L1-51; also called PIN576
Excerpt: as §3, §4

[10] = molecular target: T10, 232; assay: ELISA
T10 construct: H3-23 K1-6; also called PIN232
Excerpt: as §3, §4

[11] = molecular target: T11, 203; assay: ELISA
T11 construct: H3-23 L1-47; also called PIN203
Excerpt: as §3, §4

[12] = molecular target: T12, 128; assay: ELISA
T12 construct: H3-23 K1-27; also called PIN128
Excerpt: as §3, §4

[13] = molecular target: T13, 540; assay: ELISA
T13 construct: H3-23 K3-20; also called PIN540
Excerpt: as §3, §4

[14] = molecular target: T14, 617; assay: ELISA
T14 construct: H3-23, VL 1-44, LC printed K; also called PIN617
Excerpt: as §3, §4

[15] = molecular target: T15, 522; assay: ELISA
T15 construct: H3-23 L1-40; also called PIN522
Excerpt: as §3, §4

[16] = molecular target: T1, PIN149 fully human Id protein (HV3-23 / …); assay: ELISA
Excerpt: as §3, §4

[17] = molecular target: T16, 551; assay: ELISA
T16 construct: H3-23 L1-40; also called PIN551
Excerpt: as §3, §4

[18] = molecular target: T17, 352; assay: ELISA
T17 construct: H3-23 K1-39; also called PIN352
Excerpt: as §3, §4

[19] = molecular target: T18, 591; assay: ELISA
T18 construct: H3-23 K4-1; also called PIN591
Excerpt: as §3, §4

[20] = molecular target: T19, PIN185 fully human Id protein (human); assay: SPR (BIACORE 2000); mAb captured on anti-mouse surface, fully human Id protein as analyte, 25 C
T19 construct: Patient-derived idiotype immunoglobulin used as control antigen in SPR
Procedure: as §1, §2

[21] = molecular target: T20, 1023; assay: ELISA
T20 construct: H4-4 K4-1; also called PIN1023
Excerpt: as §3, §4

[22] = molecular target: T21, 987; assay: ELISA
T21 construct: H3-23 K4-1; also called PIN987
Excerpt: as §3, §4

[23] = molecular target: T22, 179; assay: ELISA
T22 construct: H3-11 K4-1; also called PIN179
Excerpt: as §3, §4

[24] = molecular target: T23, 844; assay: ELISA
T23 construct: H3-7 K4-1; also called PIN844
Excerpt: as §3, §4

[25] = molecular target: T24, 1154; assay: ELISA
T24 construct: H4-61 K4-1; also called PIN1154
Excerpt: as §3, §4

[26] = molecular target: T25, 1088; assay: ELISA
T25 construct: H2-5 K4-1; also called PIN1088
Excerpt: as §3, §4

[27] = molecular target: T26, 763; assay: ELISA
T26 construct: H4-59 K4-1; also called PIN763
Excerpt: as §3, §4

[28] = molecular target: T27, 950; assay: ELISA
T27 construct: H4-59 K4-1; also called PIN950
Excerpt: as §3, §4

[29] = molecular target: T28, 898; assay: ELISA
T28 construct: H3-15 K4-1; also called PIN898
Excerpt: as §3, §4

[30] = molecular target: T29, 839; assay: ELISA
T29 construct: H3-23 K4-1; also called PIN839
Excerpt: as §3, §4

[31] = molecular target: T30, 1145; assay: ELISA
T30 construct: H3-11 K4-1; also called PIN1145
Excerpt: as §3, §4

[32] = molecular target: T31, 628; assay: ELISA
T31 construct: fully human Id protein; also called PIN628
T31 sequence (VH, as listed by the source, chain 1 of 2): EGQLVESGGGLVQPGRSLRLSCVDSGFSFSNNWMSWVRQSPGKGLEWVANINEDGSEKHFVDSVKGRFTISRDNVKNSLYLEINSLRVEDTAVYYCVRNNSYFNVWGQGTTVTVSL
T31 sequence (VL, as listed by the source, chain 2 of 2): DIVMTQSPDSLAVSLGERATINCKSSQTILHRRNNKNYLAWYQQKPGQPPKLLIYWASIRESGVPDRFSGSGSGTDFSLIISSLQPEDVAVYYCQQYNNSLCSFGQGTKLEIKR
Excerpt: as §3, §4

[33] = molecular target: T32, 913; assay: ELISA
T32 construct: fully human Id protein; also called PIN913
T32 sequence (heavy, as listed by the source): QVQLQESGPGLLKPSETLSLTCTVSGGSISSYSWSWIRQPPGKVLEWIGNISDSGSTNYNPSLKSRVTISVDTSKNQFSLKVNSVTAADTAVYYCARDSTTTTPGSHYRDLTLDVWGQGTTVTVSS
Excerpt: as §3, §4

[34] = molecular target: T33, 791; assay: ELISA
T33 construct: H3-30 K4-1; also called PIN791
Excerpt: as §3, §4

[35] = molecular target: T34, 529; assay: ELISA
T34 construct: H3-48 K4-1; also called PIN529
Excerpt: as §3, §4

[36] = molecular target: T35, 192; assay: ELISA
T35 construct: H5-51 K4-1; also called PIN192
Excerpt: as §3, §4

[37] = molecular target: T36, 626; assay: ELISA
T36 construct: H5-51 K4-1; also called PIN626
Excerpt: as §3, §4

[38] = molecular target: T19, PIN185 fully human Id protein; assay: ELISA
Excerpt: as §3, §4

[39] = molecular target: T37, 204; assay: ELISA
T37 construct: H3-15 K4-1; also called PIN204
Excerpt: as §3, §4

[40] = molecular target: T38, 199; assay: ELISA
T38 construct: H3-7 K4-1; also called PIN199
Excerpt: as §3, §4

[41] = molecular target: T39, 659; assay: ELISA
T39 construct: H3-21 K4-1; also called PIN659
Excerpt: as §3, §4

[42] = molecular target: T40, 170; assay: ELISA
T40 construct: H4-34 K4-1; also called PIN170
Excerpt: as §3, §4

[43] = molecular target: T41, 792; assay: ELISA
T41 construct: H1-3 K4-1; also called PIN792
Excerpt: as §3, §4

[44] = molecular target: T42, 952; assay: ELISA
T42 construct: H3-66 K4-1; also called PIN952
Excerpt: as §3, §4

[45] = molecular target: T43, 112; assay: ELISA
T43 construct: H4-39 K4-1; also called PIN112
Excerpt: as §3, §4

[46] = molecular target: T44, 1014; assay: ELISA
T44 construct: H3-53 K4-1; also called PIN1014
Excerpt: as §3, §4

B1: mAb clone 3C9 (antibody, V domains shown)
VH: EVQLQQSGPELEKPGASVKISCKASGYSFTAYNMNWVKQNNGKSLEWIGNIDPYHGGTNYNQKFKGKATLTVDKSSSTAYMQLKSLTSEDYAVYYCARGGGDWSWFAYWGQGTLVTVSA
VL: DIVMTQSHKFMSTSVGDRVSITCKASQDVNTAVAWYQQKPGQSPKVLIYWASNRHTGVPDRFTGSGSGTDYTLTISSMQAEDLALYYCHQHYSTPWTFGGGTKLEIER
notes: Mouse hybridoma mAb, fusions 13/14 (immunogen PIN149 chimera-KLH); also called anti-IGHV3-23 monoclonal 3C9
4: grade [2] | grade [3] | grade [5] | grade [6] | grade [7] | grade [8] | grade [9] | grade [10] | grade [11] | grade [12] | grade [13] | grade [14] | grade [15] | grade [16] | grade [17] | grade [18] | grade [19]
74900 M⁻¹ s⁻¹: kon [1]
1.78 nM: Kd [1]
1: grade [4]
0.000134 s⁻¹: koff [1]

B2: mAb clone 10H7 (antibody, V domains shown)
VH: EVQLVESGGGLVKPGGSLKLSCTASGFTFSSYAMSWVRQSPEKRLEWVAEISSGGIHTYYSDTVTGRFSISRDNAKNSTLYLEMNSLRSEDTAIYYCARETTGTWGQGTLVTVSA
VL: QIVLTQSPAIMSASPGEKVTMTCSVSSSITYMHWFRQKPGTSPKLWIYTTSNLASGVPARFSGSGSGTSYSLTISRMEAEDAATYYCQQRSRYPFTFGSGTKLEIKR
notes: Mouse hybridoma mAb, fusions 13/14 (immunogen PIN149 chimera-KLH)
9.9e-05 s⁻¹: koff [20]
0.83 nM: Kd [1]
33200 M⁻¹ s⁻¹: kon [20]
3.8e-05 s⁻¹: koff [1]
4: grade [21] | grade [22] | grade [23] | grade [24] | grade [25] | grade [26] | grade [27] | grade [28] | grade [29] | grade [30] | grade [31] | grade [32] | grade [33] | grade [34] | grade [35] | grade [36] | grade [37] | grade [38] | grade [39] | grade [40] | grade [41] | grade [42] | grade [43] | grade [16] | grade [44] | grade [45] | grade [46] | grade [19]
3 nM: Kd [20]
45400 M⁻¹ s⁻¹: kon [1]
